According to publication PMC10624894 (Nature Communications, 2023):

What follows are binders tested against EA1ΔD6 (Bacillus anthracis (strain 7702), UniProt P94217, biotin (EZ-Link NHS-PEG4-Biotin) in the BLI experiment only) (assay: BLI; […] (3 µg/ml) […]; room temperature; […]). Details: both partners purified.

Row | Binder | Kd
1 | Nb^633 (VHH, also called nanobody 633; source: E. coli WK6, periplasmic expression, purified (SEC as the final step)) VHH: QVQLVESGGGLVQAGASLRLSCAASGRTFSSYAMGWFRQAPGKEREFVAAISPLGQTTYYTDSVKGRFTISRDNAKNTLYLQMNSLKPEDTAVYYCAQGSLSEVRLGKSTYWGQGTQVTVSS | 13 nM
2 | Nb^632 (VHH, also called nanobody 632; source: E. coli WK6, periplasmic expression, purified (SEC as the final step)) VHH: QVQLVESGGGLVQAGGSLRLSCVASGGTFSNYGMGWFRQAPGKEREFVAAVRWSGDSTYYSDSVKGRFTISRDNAKNTVYLQMNGLKPEDTAVYYCARRLNWRFISNWDKESEYAYWGQGTQVTVSS | 2.2 nM
3 | Nb^643 (VHH, also called nanobody 643; source: E. coli WK6, periplasmic expression, purified (SEC as the final step)) VHH: QVQLVESGGGLVQPGGSLRLSCAASGIAFSRNAVGWYRQAPGKQRELVARSNTVGATNYADSVKGRFTISRDNDKSTVYLQMNSLKPEDTAVYYCNIYLYGDRTGSTLNSWGQGTQVTVSS | 1.9 nM
